Target: T1, Mus musculus SPO11, MBP-tagged (Mus musculus, UniProt Q9WTK8 1-396)
T1 sequence (looked up): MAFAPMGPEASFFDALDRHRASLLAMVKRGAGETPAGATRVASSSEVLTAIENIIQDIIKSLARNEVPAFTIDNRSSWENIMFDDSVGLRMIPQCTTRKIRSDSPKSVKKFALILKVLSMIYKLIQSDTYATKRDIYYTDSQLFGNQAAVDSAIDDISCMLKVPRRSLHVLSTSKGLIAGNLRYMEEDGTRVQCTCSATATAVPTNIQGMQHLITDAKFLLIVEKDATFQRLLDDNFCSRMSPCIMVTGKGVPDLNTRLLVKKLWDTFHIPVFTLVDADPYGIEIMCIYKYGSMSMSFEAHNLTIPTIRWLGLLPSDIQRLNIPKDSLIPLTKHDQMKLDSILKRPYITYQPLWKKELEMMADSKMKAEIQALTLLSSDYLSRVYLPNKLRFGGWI
Assay: SEC-MALS

B1: Mus musculus TOP6BL, HisFlag-tagged (natural protein, UniProt J3QMY9 1-579, looked up)
chain: MERTALAVCEILRYLIIHWKCEAGTAKGTLLDGQLVISIEALRSKHLPDSLHCIITIASTRSVYGGLNFKKFLQEIQPALPRLSAKLALASEEGGRSQDASGIAPCQVTFEVDENSQSLMTDCLVIKHFLRKIIIVHHKLKFSFSVAVNGTLSAETFGAENEPTLRLDNGVTLVVGFQRYVSKPKLNWSEAHCSRIHPVLGHPAPLFIPDAKADTGLLGELTLTPAAALCPSPKGFSSQLCRISSVSIFLYGPLGLPLLSSDQDQPSTAVFRDTSYFIDWKKYNLFMVPNLDLNLDTQSVLPDVNYKAESPEGNQSQNMNAQGPALLLFLFVDFQSDVPVQQAKIWGLHTLLTAHLSAILSESRSTVQQSIQSAVDQVWQLYHHDAKTQQRLQASLSVAVNSIMSVLTGSTRSSFRKTCLQALEAADTQEFGVKLHRIFYDITQHQFLKHCSCDTEQHLTPEKNISAQNTKDQHKNIAQEFPEESIGQAENKRPKRGSPNHGREESRVLGSARDRSPPKSATRDRELTEVSLTARGSQTQAAHGRAQAAEAASPAGGLEDLWLQEVSNLSEWLNPGHRS
For B1, which “stoichiometry N” value is on record?
Its value is 1.
